Source: article PMC6638984, “Increased association between Epstein-Barr virus EBNA2 from type 2 strains and the transcriptional repressor BS69 restricts EBNA2 activity” (PLoS Pathogens, 2019)

B1: type 2 EBNA2 polypeptide T2 EBNA2_(348-422) [Epstein-Barr virus type 2 (AG876)] / BS69 coiled-coil MYND domain (BS69_(CC-MYND), amino acids 480-602) [human] (parent)
chain 1: SMPQLSPVVSLHQGQGPENSPTPGPSTAGPVCRVTPSATPDISPIHEPESSDSEEPPFLFPSDWYPPTLEPAELD
chain 2: DRMKSDHKRETERVVREALEKLRSEMEEEKRQAVNKAVANMQGEMDRKCKQVKEKCKEEFVEEIKKLATQHKQLISQTKKKQWCYNCEEEAMYHCCWNTSYCSIKCQQEHWHAEHKRTCRRKR

Variants of: B1
Experiment: ITC
Details: with BS69 coiled-coil MYND domain (BS69_(CC-MYND), amino acids 480-602) [human], two-site model, 29 injections of 1.3 μl 0.3 mM EBNA2 polypeptide and 0.1 mM BS69CC-MYND in the cell
[1] = binding event 1 (KD1), parent: 9 nM
[2] = binding event 2 (KD2), parent: 91 nM

Variant	Kd [1] [nM]	Kd [2] [nM]
chain 1 SMPQLSPVVSLHQGQGPENSPTPGPSTAGPVCRVTPSATPDISPIHEPESSDSEEPPFLFPDDWYPATAEAAELD [chain 1 S62D P67A L69A P71A]	8	200
chain 1 SMPQLSPVVSLHQGQGPENSPTPGPSTAGPVCRVTPSATPDISPIHEPESSDSEEPPFLFPDDWYPPTLEPAELD [chain 1 S62D]	5	94
